According to article PMC11237551, “MRS2 missense variation at Asp216 abrogates inhibitory Mg^2+ binding, potentiating cell migration and apoptosis resistance” (Protein Science : A Publication of the Protein Society, 2024):
Changes are numbered by the printed parent chain. In names and notes the source's numbering stands.

B1: human MRS2 amino terminal domain, residues 58-333 (MRS2_(58‐333)), wild type (domain or fragment, UniProt Q9HD23-1 58-333, looked up)
chain: DRLRVAGEVHRFRTSDVSQATLASVAPVFTVTKFDKQGNVTSFERKKTELYQELGLQARDLRFQHVMSITVRNNRIIMRMEYLKAVITPECLLILDYRNLNLEQWLFRELPSQLSGEGQLVTYPLPFEFRAIEALLQYWINTLQGKLSILQPLILETLDALVDPKHSSVDRSKLHILLQNGKSLSELETDIKIFKESILEILDEEELLEELCVSKWSDPQVFEKSSAGIDHAEEMELLLENYYRLADDLSNAARELRVLIDDSQSIIFINLDSHRN
notes: Mitochondrial RNA splicing protein 2 (MRS2), human, amino terminal (matrix) domain, residues 58-333 of NCBI NP_065713.1 (pre-protein numbering); theoretical monomer 32.5 kDa including cloning artifacts; Surmise: E. coli, His tag removed by protease; also called MRS2‐NTD; WT; source: recombinantly expressed and purified, as described previously (Uthayabalan et al., 2023)
B2: human MRS2 amino terminal domain, residues 58-333, D216Q mutant (MRS2_(58‐333)‐D216Q) (domain or fragment, UniProt Q9HD23-1 58-333, looked up)
chain: B1 chain with D159Q
notes: theoretical monomer 32,517 Da; construct details in Uthayabalan et al., 2023; also called MRS2‐NTD‐D216Q; source: recombinantly expressed and purified as described for MRS2_(58‐333) (Uthayabalan et al., 2023)
B3: human MRS2 amino terminal domain, residues 58-333, E261Q mutant (MRS2_(58‐333)‐E261Q) (domain or fragment, UniProt Q9HD23-1 58-333, looked up)
chain: B1 chain with E204Q
notes: construct details in Uthayabalan et al., 2023; also called MRS2‐NTD‐E261Q; source: recombinantly expressed and purified as described for MRS2_(58‐333) (Uthayabalan et al., 2023)

Columns and labels:
[1] = molecular target: the molecule itself; experiment: AUC; sedimentation equilibrium, 0.625 mg/mL protein, no Mg2+, 20°C, 20 mM Tris, 150 mM NaCl, 1 mM DTT, pH 8.0; global fit of 8000, 12,000, 16,000 and 20,000 rpm; dimer to monomers
[2] = molecular target: the molecule itself; experiment: AUC; sedimentation equilibrium, 1.25 mg/mL protein, with 5 mM MgCl2, 20°C, 20 mM Tris, 150 mM NaCl, 1 mM DTT, pH 8.0; global fit of 8000, 12,000, 16,000 and 20,000 rpm; dimer to monomers
[3] = molecular target: the molecule itself; experiment: AUC; sedimentation equilibrium, 1.25 mg/mL protein, no Mg2+, 20°C, 20 mM Tris, 150 mM NaCl, 1 mM DTT, pH 8.0; global fit of 8000, 12,000, 16,000 and 20,000 rpm; dimer to monomers
[4] = molecular target: the molecule itself; experiment: SEC-MALS; Superdex 200 Increase 10/300 GL, 100 uL injected at 2.5 mg/mL, 20 mM Tris pH 8, 150 mM NaCl, 1 mM DTT, ~10°C, buffer nominally free of Mg2+
[5] = molecular target: the molecule itself; experiment: AUC; sedimentation equilibrium, 0.313 mg/mL protein, with 5 mM MgCl2, 20°C, 20 mM Tris, 150 mM NaCl, 1 mM DTT, pH 8.0; global fit of 8000, 12,000, 16,000 and 20,000 rpm; dimer to monomers
[6] = molecular target: the molecule itself; experiment: AUC; sedimentation equilibrium, 0.313 mg/mL protein, no Mg2+, 20°C, 20 mM Tris, 150 mM NaCl, 1 mM DTT, pH 8.0; global fit of 8000, 12,000, 16,000 and 20,000 rpm; dimer to monomers
[7] = molecular target: the molecule itself; experiment: AUC; sedimentation equilibrium, 0.625 mg/mL protein, with 5 mM MgCl2, 20°C, 20 mM Tris, 150 mM NaCl, 1 mM DTT, pH 8.0; global fit of 8000, 12,000, 16,000 and 20,000 rpm; dimer to monomers

| Protein | Kd [1] [µM] | stoichiometry N [1] | Kd [2] [µM] | stoichiometry N [2] | Kd [3] [µM] | stoichiometry N [3] | stoichiometry N [4] | Kd [5] [µM] | stoichiometry N [5] | Kd [6] [µM] | stoichiometry N [6] | Kd [7] [µM] | stoichiometry N [7] |
| --- | --- | --- | --- | --- | --- | --- | --- | --- | --- | --- | --- | --- | --- |
| B1 | 24.3 | 1.6 | 55.4 | 1.5 | 16.4 | 1.7 | 2 | 1760 | 1 | 17.4 | 1.7 | 146 | 1.1 |
| B2 |  |  | 33.6 | 1.6 |  |  |  | 11.2 | 2 |  |  | 22.2 | 1.8 |
| B3 |  |  |  |  |  |  | 2 |  |  |  |  |  |  |
